How the values were obtained:
[1] = target: T1, human FcRn (heterodimer of alpha chain and beta2-microglobulin) (human, UniProt P55899 24-297; P61769 21-119, limits assumed); test: SPR, FcRn coupled directly to CM5 chip, antibody analyte at 200 nM bound at pH 6.0, dissociation at pH 7.4; avid format, relative values only
T1 construct: Co-expressed in HEK293T cells; also called hFcRn; human neonatal Fc receptor

[2] = target: T1, human FcRn (heterodimer of alpha chain …); test: SPR as above, pH 6.0; fold KD against native IgG1
[3] = target: T1, human FcRn (heterodimer of alpha chain …); test: SPR (Biacore 3000), antibody captured on immobilized VEGF, human FcRn as analyte, pH 6.0, 1:1 Langmuir fit

T1 sequence (P55899 24-297 limits assumed, chain 1 of 2): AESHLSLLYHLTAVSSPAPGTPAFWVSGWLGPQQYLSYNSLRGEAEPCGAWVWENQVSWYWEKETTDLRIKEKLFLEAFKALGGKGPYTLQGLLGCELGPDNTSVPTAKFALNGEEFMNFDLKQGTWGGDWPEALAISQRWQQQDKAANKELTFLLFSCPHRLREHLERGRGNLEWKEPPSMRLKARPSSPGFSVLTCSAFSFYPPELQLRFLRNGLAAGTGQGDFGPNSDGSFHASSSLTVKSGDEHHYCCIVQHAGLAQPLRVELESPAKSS
T1 sequence (P61769 21-119 limits assumed, chain 2 of 2): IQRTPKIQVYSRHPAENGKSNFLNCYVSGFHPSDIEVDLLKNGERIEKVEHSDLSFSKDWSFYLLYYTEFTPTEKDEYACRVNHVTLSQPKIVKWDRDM

Row | Binder | koff [1] | Fold KD [2] | Kd [3] | koff [3] | kon [3]
1 | bevacizumab IgG1 Fc variant N434S (antibody, copies: 2 + 2) heavy: not shown light: not shown | 0.29 s⁻¹ | – | – | – | –
2 | bevacizumab IgG1 Fc variant M252Y/S254T/T256E (antibody, also called YTE; copies: 2 + 2) heavy: EVQLVESGGGLVQPGGSLRLSCAASGYTFTNYGMNWVRQAPGKGLEWVGWINTYTGEPTYAADFKRRFTFSLDTSKSTAYLQMNSLRAEDTAVYYCAKYPHYYGSSHWYFDVWGQGTLVTVSSASTKGPSVFPLAPSSKSTSGGTAALGCLVKDYFPEPVTVSWNSGALTSGVHTFPAVLQSSGLYSLSSVVTVPSSSLGTQTYICNVNHKPSNTKVDKKVEPKSCDKTHTCPPCPAPELLGGPSVFLFPPKPKDTLYITREPEVTCVVVDVSHEDPEVKFNWYVDGVEVHNAKTKPREEQYNSTYRVVSVLTVLHQDWLNGKEYKCKVSNKALPAPIEKTISKAKGQPREPQVYTLPPSREEMTKNQVSLTCLVKGFYPSDIAVEWESNGQPENNYKTTPPVLDSDGSFFLYSKLTVDKSRWQQGNVFSCSVMHEALHNHYTQKSLSLSPGK light: not shown | 0.32 s⁻¹ | 7.24 fold | 0.34 µM | 0.0549 s⁻¹ | 162000 M⁻¹ s⁻¹
3 | bevacizumab IgG1 Fc variant V259I/V308F (antibody, also called IF; copies: 2 + 2) heavy: not shown light: not shown | 0.6 s⁻¹ | 5.8 fold | 0.424 µM | 0.0752 s⁻¹ | 178000 M⁻¹ s⁻¹
4 | bevacizumab IgG1 Fc variant V259I/V308F/M428L (antibody, also called IFL; copies: 2 + 2) heavy: EVQLVESGGGLVQPGGSLRLSCAASGYTFTNYGMNWVRQAPGKGLEWVGWINTYTGEPTYAADFKRRFTFSLDTSKSTAYLQMNSLRAEDTAVYYCAKYPHYYGSSHWYFDVWGQGTLVTVSSASTKGPSVFPLAPSSKSTSGGTAALGCLVKDYFPEPVTVSWNSGALTSGVHTFPAVLQSSGLYSLSSVVTVPSSSLGTQTYICNVNHKPSNTKVDKKVEPKSCDKTHTCPPCPAPELLGGPSVFLFPPKPKDTLMISRTPEITCVVVDVSHEDPEVKFNWYVDGVEVHNAKTKPREEQYNSTYRVVSVLTFLHQDWLNGKEYKCKVSNKALPAPIEKTISKAKGQPREPQVYTLPPSREEMTKNQVSLTCLVKGFYPSDIAVEWESNGQPENNYKTTPPVLDSDGSFFLYSKLTVDKSRWQQGNVFSCSVLHEALHNHYTQKSLSLSPGK light: not shown | 0.13 s⁻¹ | 19.8 fold | 0.124 µM | 0.0238 s⁻¹ | 192000 M⁻¹ s⁻¹
5 | bevacizumab IgG1 Fc variant M428L/N434S (antibody, also called LS; LS bevacizumab variant; copies: 2 + 2) heavy: not shown light: not shown | 0.33 s⁻¹ | – | – | – | –

Source: US20140161790A1 (Xencor, published 2014)
